From patent US20230140293A1

Experiments:
Assay in all cases: ELISA, gp120 on plate
[1] = target: CH505 transmitted/founder (TF) gp120 (HIV-1)
CH505 M5 gp120 (HIV-1) = target: CH505 M5 gp120 (HIV-1)
[2] = target: CH505 w020.14 gp120 (HIV-1)
[3] = target: CH505 w078.15 gp120 (HIV-1)
CH505 M11 gp120 (HIV-1) = target: CH505 M11 gp120 (HIV-1)
[4] = target: CH505 w030.28 gp120 (HIV-1)
[5] = target: CH505 w053.16 gp120 (HIV-1)

Substance | log AUC [1] | log AUC (CH505 M5 gp120 (HIV-1)) | log AUC [2] | log AUC [3] | log AUC (CH505 M11 gp120 (HIV-1)) | log AUC [4] | log AUC [5]
CH103 lineage intermediate ancestor IA3 (antibody) | 11 log AUC | 6.8 log AUC | 9.5 log AUC | 3 log AUC | 11.8 log AUC | 7.7 log AUC | 1.1 log AUC
CH103 lineage intermediate ancestor IA4 (antibody) | 10.1 log AUC | 3.8 log AUC | 8.6 log AUC | 1.3 log AUC | 10.5 log AUC | 6.5 log AUC | 0.2 log AUC
CH103 lineage intermediate ancestor IA6 (antibody) | 9.1 log AUC | 3.3 log AUC | 7.9 log AUC | 1 log AUC | 10 log AUC | 6.3 log AUC | 
CH103 lineage intermediate ancestor IA7 (antibody) | 9.2 log AUC | 2.3 log AUC | 7.2 log AUC | 0.7 log AUC | 10.1 log AUC | 3.5 log AUC | 
